Common to all, as to assay type: biochemical, human
For data set [1], the system named is PAPSS2. Kind of data set: PAPSS2 enzyme activity, coupled radiochemical assay (PAPS generation then SULT1E1-catalyzed sulfation of [3H]estradiol) with COS-1 expressed recombinant allozymes. The following applies: for % WT activity / decrease in enzyme activity compared with the wild type enzyme: His-tagged recombinant allozyme, loxP-modified p91023(b) vector, COS-1 cells, corrected for transfection efficiency; for activity relative to the reference PAPSS2 (in words): general statement in the description. From the text: Variant alleles of the four non-synonymous PAPSS2 cSNPs observed during the resequencing experiments were created using the QuickChange Site-Directed Mutagenesis Kit (Stratagene, La Jolla, Calif.), with wild type PAPSS2 cDNA in pUni as template. The sequence of the pUni insert was confirmed by completely sequencing both strands before recombination with the loxP-modified p91023(b) acceptor vector. pUni donor vectors that contained wild type and variant PAPSS2 cDNAs, as well as empty pUni, then were combined with the loxP-modified p91023(b) acceptor vector to generate the final expression constructs. In all cases, the fusion junctions of resultant expression constructs were sequenced to confirm that the construct was a dimer consisting of only a single donor and a single acceptor vector. These expression constructs were used to transfect COS-1 cells using TransFast™ reagent (Promega) with a 1:1 charge ratio. pSV-β-galactosidase (Promega) was co-transfected with each construct as an internal control to correct for transfection efficiency. Transfected COS-1 cells were harvested after 48 hours and were homogenized with a Polytron homogenizer (Brinkmann Instruments, Westbury, N.Y.) in 25 mM potassium phosphate buffer, pH 7.8, containing 1 mM dithiothreitol (DTT) and 1 mM EDTA. The homogenates were centrifuged at 15,000 g for 15 minutes, and the resultant supernatant preparations were used to perform enzyme assays, substrate kinetic studies and Western blot analyses. In some cases, aliquots of these cytosol preparations were stored at −80° C. prior to assay.
PAPSS2 Enzyme Activity: PAPSS2 activity was measured with a coupled radiochemical assay. See Xu et al., 2001, supra. Briefly, PAPS is generated from ATP and Na2SO4 in a PAPSS2-catalyzed reaction. The generated PAPS is then used as a substrate for the SULT1E1-catalyzed sulfate conjugation of [2,4,6,7-^3H]estradiol, a radioactively labeled sulfate acceptor substrate. The cell homogenate preparations of recombinant PAPSS2 allozymes described above were used for the activity studies without any further purification. The protein concentration of each recombinant protein preparation was determined by the dye-binding method of Bradford with bovine serum albumin (BSA) as a standard.
PAPS synthesis was catalyzed by recombinant wild-type PAPSS2 or PAPSS2 allozymes (present in the cell homogenate preparations described above) in the presence of 1 mM ATP, 16 mM Na2SO4, 1 mM MgCl2, and 2 mM DTT in 60 mM glycine-NaOH buffer, pH 8.6. Blank samples included the same quantity of COS-1 cytosol protein from cells that had been transfected with empty expression vector to make it possible to correct for endogenous activity. Reaction mixtures were incubated at 37° C. for 20 minutes, and then terminated by heating at 100° C. for 1 minute. An aliquot from this PAPS-generating reaction was then added to a second, coupled reaction containing recombinant human SULT1E1 isolated from COS-1 cells transfected with a SULT1E1 expression construct (see Aksoy et al., Biochem. Biophys. Res. Commun., 200:1621–1629 (1994)). The coupled reaction also included 27 nM [2,4,6,7-^3H]estradiol, 8 mM DTT and 1.25 mM MgCl2 in 10 mM potassium phosphate buffer, pH 6.5. The second, SULT1E1-catalyzed reactions were incubated at 37° C. for 20 minutes, and then terminated by the addition of KOH, followed by organic solvent extraction performed with chloroform. Radioactivity of the sulfate conjugated [2,4,6,7-^3H]estradiol in the aqueous phase after organic solvent extraction was then measured in a liquid scintillation counter. PAPSS activities of recombinant PAPSS2 allozymes were compared after correction for transfection efficiency by measuring the activity of cotransfected P-galactosidase. β-Galactosidase activity in the COS-1 cell preparations was measured with the β-Galactosidase Assay System (Promega) as described by the manufacturer. […]

For data set [2], the system named is PAPSS2. Description: Substrate kinetic studies of recombinant PAPSS2 with ATP and Na2SO4. The procedure: To estimate apparent Km values of PAPSS2 for the two reaction cosubstrates, a series of ATP (0.125–4 mM) and Na2SO4 (0.125–16 mM) concentrations were tested with the recombinant allozymes. When ATP was the varied substrate, the concentration of Na2SO4 was 4 mM, and when Na2SO4 was the varied substrate, the concentration of ATP was 1 mM. Blanks for each substrate concentration were included by assaying COS-1 cell cytosol after transfection with empty vector.
Data Analysis: Apparent Km values were calculated by using the method of Wilkinson with a computer program written by Cleland. Wilkinson, Biochem. J., 80:324–332 (1961); and Cleland, Nature, 198:[…] (1963). Statistical comparisons of data were performed by ANOVA with the StatView program, version 4.5 (Abacus Concepts, Inc., Berkeley, Calif.). Apparent Km, S50 and Vmax values for the wild-type and variant PAPSS2 allozymes were compared by the use of unpaired Student's t-test.
Alterations in amino acid sequence can alter enzyme substrate affinity and/or catalytic efficiency. Decreased activity of the Val291Met allozyme—without a significant alteration in level of enzyme protein—could have resulted from a change in substrate kinetics. Therefore, a series of ATP (0.125–4 mM) and Na2SO4 (0.125–16 mM) concentrations were used to estimate apparent Km values for recombinant wild type PAPSS2 and for the Val291Met variant allozyme. […] ATP concentrations at which 50% maximal velocity was achieved (S50 values) were 0.70 and 0.95 mM for the wild type and variant allozymes, respectively (Table 4). In both cases, the Hill coefficient was greater than 2, […]. In contrast, substrate kinetics of both allozymes for Na2SO4 conformed to Michaelis-Menten predictions (FIG. 5B). […] In summary, decreased activity for the Val1291Met variant appeared to result from an alteration in substrate kinetics, while decreased activity for the Glu10Lys allozyme, in contrast, resulted primarily from a decrease in the quantity of enzyme protein. Because the Val291Met variant was encoded by a construct that contained the most common PAPSS2 nonsynonymous cSNP, these observations could have functional implications for the sulfate conjugation of both endogenous and/or exogenous compounds.

Data set [3] relates to PAPSS2. Kind of data set: PAPSS2 enzyme activity, coupled radiochemical assay (PAPS generation then SULT1E1-catalyzed sulfation of [3H]estradiol) with COS-1 expressed recombinant allozymes. The following applies: non-His-tagged expression vector p91023(b), COS-1 cells, corrected for transfection efficiency.

Numbering of substitutions follows the chain as printed. Several values for one entry are separate records, joined by “and”; a condition that tells them apart may be missing. Equal entries are not always repeated.

Usually Km stands for the substrate concentration at which the rate is half of its maximum.

B1: Val291Met: PAPSS2 polypeptide allozyme having a methionine at amino acid 291 in place of valine (adenine at nucleotide 871) (protein)
chain: MSGIKKQKTENQQKSTNVVYQAHHVSRNKRGQVVGTRGGFRGCTVWLTGLSGAGKTTISFALEEYLVSHAIPCYSLDGDNVRHGLNRNLGFSPGDREENIRRIAEVAKLFADAGLVCITSFISPFAKDRENARKIHESAGLPFFEIFVDAPLNICESRDVKGLYKRARAGEIKGFTGIDSDYEKPETPERVLKTNLSTVSDCVHQVVELLQEQNIVPYTIIKDIHELFVPENKLDHVRAEAETLPSLSITKLDLQWVQVLSEGWATPLKGFMREKEYLQVMHFDTLLDDGMINMSIPIVLPVSAEDKTRLEGCSKFVLAHGGRRVAILRDAEFYEHRKEERCSRVWGTTCTKHPHIKMVMESGDWLVGGDLQVLEKIRWNDGLDQYRLTPLELKQKCKEMNADAVFAFQLRNPVHNGHALLMQDTCRRLLERGYKHPVLLLHPLGGWTKDDDVPLDWRMKQHAAVLEEGVLDPKSTIVAIFPSPMLYAGPTEVQWHCRSRMIAGANFYIVGRDPAGMPHPETKKDLYEPTHGGKVLSMAPGLTSVEIIPFRVAAYNKAKKAMDFYDPARHNEFDFISGTRMRKLAREGENPPDGFMAPKAWKVLTDYYRSLEKN
As for B1, in the data set with PAPSS2 [1], the “% WT activity” value worked out at 37.1 ± 6.9%, the “decrease in enzyme activity compared with the wild type enzyme” value came to 62.9% and the “activity relative to the reference PAPSS2 (in words)” value was “reduced activity”. For the same molecule, in the data set on PAPSS2 [2] (ATP varied 0.125-4 mM, Na2SO4 4 mM), the “S50 for ATP (ATP concentration at which 50% maximal velocity was achieved)” value was 0.95 mM and 0.95 ± 0.02 mM. In the data set with PAPSS2 [2] (apparent Km, Na2SO4 varied 0.125-16 mM, ATP 1 mM), the Michaelis constant (Km) stood at 3000 µM. Also, the “Vmax/S50, ATP” value in the data set on PAPSS2 [2] (ratio, wild type = 100, ATP as varied substrate) came to 27.8 ± 3.3. The “Vmax, ATP” value in the data set on PAPSS2 [2] (relative Vmax, wild type = 100, ATP as varied substrate) is 37 ± 3.9. Further, the “Vmax, Na2SO4” value in the data set on PAPSS2 [2] (relative Vmax, wild type = 100, Na2SO4 as varied substrate) stood at 45 ± 2.4. Moreover, the “activity reduced compared with wild type” value in the data set with PAPSS2 [3] was determined as 57.4%.

B2: Glu10Lys: PAPSS2 polypeptide allozyme having a lysine at amino acid residue 10 in place of glutamic acid (adenine at nucleotide 28) (protein)
chain: B1 chain with E10K, M291V
As to B2, in the data set with PAPSS2 [1], the “% WT activity” value is reported as 72.6 ± 7.2%, the “decrease in enzyme activity compared with the wild type enzyme” value amounted to 27.4% and the “activity relative to the reference PAPSS2 (in words)” value is given as “reduced activity”. Moreover, the “activity reduced compared with wild type” value in the data set with PAPSS2 [3] was 14.1%.

B3: Met281Leu: PAPSS2 polypeptide allozyme having a leucine at amino acid residue 281 in place of methionine (thymine at nucleotide 841) (protein)
chain: B1 chain with M281L, M291V
On to B3, for which, in the data set with PAPSS2 [1], the “% WT activity” value is 107.7% and 107.7 ± 2.9%; the “activity relative to the reference PAPSS2 (in words)” value is “activity that is comparable to the reference PAPSS2”.

B4: Arg432Lys: PAPSS2 polypeptide allozyme having a lysine at amino acid 432 in place of arginine (adenine at nucleotide 1295) (protein)
chain: B1 chain with M291V, R432K
As for B4, in the data set on PAPSS2 [1], the “% WT activity” value was 104.8% and 104.8 ± 10.1%; the “activity relative to the reference PAPSS2 (in words)” value is listed as “activity that is comparable to the reference PAPSS2”.

The values are drawn from US7186551B1, “3′-phosphoadenosine -5′-phosphosulfate synthetase 2 (PAPSS2) sequence variants” (Mayo Foundation for Medical Education and Research, priority 2001, dated 2007).
